Consider one molecule from patent US9295682B2, “Adjuvant immunotherapy for the preventive, curative or palliative treatment of chronic systemic diseases such as cancer, of clinical manifestations associated with diseases like cachexia and correction of adverse effects of drugs such as immunosuppression, neutropenia and lymphopenia, comprising …” (priority 2009, dated 2016).

In this assay the test system is Lewis lung carcinoma (3LL). As to the kind of experiment: Lewis lung carcinoma (3LL) survival, 1st experiment (Table A). Type of assay: in vivo, C57B1/6 female mice. The settings on record: 100 days; IM-2 0.5 mg/kg/day alone, IM-2 0.5 mg/kg + Il-2 0.05 μg/animal, or IL-2 0.1 μg/animal alone; i.p., 3 weekly cycles.

Experimental: Animals: 3-week-old C57B1/6 female mice were used in all the experiments (Table A, Table B, Table C)
Tumor: Lewis lung carcinoma (3LL) was the tumor selected for all the in vivo assessments (Table A, Table B, Table C) in these experiments, with the cells maintained in culture medium and inoculated subcutaneously in the animals at the concentration of 6×10^5 cancer cells (3 LL) for each animal.
Treatments: All treatments began 24 hours after the inoculation of cancer cells.
Observation period: The animals were evaluated during an observation period of 100 days in the survival experiment.
A fourth batch of 20 animals (Group 4) inoculated with 3 LL cells (6×10^5 cells/animal), was treated with 0.5 mg/kg/day of the proteic aggregate of ammonium and magnesium phospholinoleate-palmitoleate anhydride (Table A—Group 4—IM-2) and Interleukin-12 (IL-12), 0.05 g/animal given jointly by intraperitoneal injections in 3 weekly cycles. The animals were followed up for 100 days.
A fifth batch of 20 animals (Table A—Group 5) inoculated with 3 LL cells (6×10^5 cells/animal) was treated with Interleukin-12 (IL-12), 0.1 μg/animal applied by intraperitoneal injection in 3 weekly cycles. The animals were followed up for 100 days, and the number of survivors was expressed in percentage.

B1: Interleukin-12 (IL-12) (protein, UniProt P29459 23-219; P29460 23-328, looked up)
Interleukin-12 subunit alpha: RNLPVATPDPGMFPCLHHSQNLLRAVSNMLQKARQTLEFYPCTSEEIDHEDITKDKTSTVEACLPLELTKNESCLNSRETSFITNGSCLASRKTSFMMALCLSSIYEDLKMYQVEFKTMNAKLLMDPKRQIFLDQNMLAVIDELMQALNFNSETVPQKSSLEEPDFYKTKIKLCILLHAFRIRAVTIDRVMSYLNAS
Interleukin-12 subunit beta: IWELKKDVYVVELDWYPDAPGEMVVLTCDTPEEDGITWTLDQSSEVLGSGKTLTIQVKEFGDAGQYTCHKGGEVLSHSLLLLHKKEDGIWSTDILKDQKEPKNKTFLRCEAKNYSGRFTCWWLTTISTDLTFSVKSSRGSSDPQGVTCGAATLSAERVRGDNKEYEYSVECQEDSACPAAEESLPIEVMVDAVHKLKYENYTSSFFIRDIIKPDPPKNLQLKPLKNSRQVEVSWEYPDTWSTPHSYFSLTFCVQVQGKSKREKKDRVFTDKTSATVICRKNASISVRAQDRYYSSSWSEWASVPCS
In the case of B1, the “% Survivors” value is 50%.
